Tests used:
Format in all cases: biochemical, Arthrobacter globiformis M30
[1] = target: ketose 3-epimerase (D-PE) (Arthrobacter globiformis, UniProt A0A1L7NQ96)
[2] = substrate: O=C(CO)[C@@H](O)[C@H](O)[C@H](O)CO; test: Km and Vmax of the present enzyme; conditions: other: 30° C., in the presence of Mg2+ ions
Procedure: (§1) The enzyme reaction was performed at 30° C. for 30 min, and the amount of the enzyme that produced 1 micromole of D-fructose in 1 min under these conditions was taken as one unit. After the reaction, the reaction mixture was put in a boiling liquid for 3 min to quench the reaction. After deionization, the product D-fructose was measured by HPLC analysis. Protein measurement was performed by using the Bradford method, using 5 μL of the enzyme liquid added to a Bradford solution (250 μl) and evenly stirred therein.
(§2) The Km and Vmax of the present enzyme for D-psicose and D-fructose were measured. The measurement was made by measuring enzyme activity at 30° C. in the presence of Mg^2+ ions.

[3] = substrate: O=C(CO)[C@H](O)[C@H](O)[C@H](O)CO; test: Km and Vmax of the present enzyme; conditions: other: 30° C., in the presence of Mg2+ ions
Procedure: as §1, §2

Molecule | Effect of metal ion on enzyme activity [1] | Km [2] [mM] | Vmax [2] [U/mg] | Km [3] [mM] | Vmax [3] [U/mg]
[Co+2] [Co^2+, divalent cobalt ions] | activatable | – | – | – | –
[Mn+2] [Mn^2+, divalent manganese ions] | activatable | – | – | – | –
ketose 3-epimerase, purified enzyme (Arthrobacter globiformis) (protein, disrupted with a high-pressure homogenizer to extract the enzyme; made in house; host or cells: Arthrobacter globiformis M30 (native producer); Purified by PEG fractionation, Q-Sepharose ion exchange and RESOURCE PHE hydrophobic chromatography) MKIGCHGLVWTGHFDAEGIRYSVQKTREAGFDLVEFPLMDPFSFDVQTAKSALAEHGLAASASLGLSDATDVSSEDPAVVKAGEELLNRAVDVLAELGATDFCGVIYSAMKKYMEPATAAGLANSKAAVGRVADRASDLGINVSLEVVNRYETNVLNTGRQALAYLEELNRPNLGIHLDTYHMNIEESDMFSPILDTAEALRYVHIGESHRGYLGTGSVDFDTFFKALGRIGYDGPVVFESFSSSVVAPDLSRMLGIWRNLWADNEELGAHANAFIRDKLTAIKTIELH | – | 31.5 | 68.5 | 30.1 | 168

Reference: patent US9057062B2, “Enzyme produced by Arthrobacter globiformis” (MATSUTANI CHEMICAL INDUSTRY CO., LTD., priority 2011, dated 2015)
